Laboratory results as given in patent publication US20220112288A1 (published 2022).
Positions count from the first letter of the chain named.

B1: 75110_13P22A (antibody, IgG1, V domains shown)
VH: QVQLQQWGAGLLKPSETLSLTCAAYGGSFSGYYWSWIRQSPGKGLEWIGEINQSGNTNYNPSLKSRVTISADTSKNQFSLKLSSVTAADTAVYYCARVLNWFDYWGQGILVTVSS
VL: DIQMTQSPSSVSASVGDRVTITCRASQGISDWLAWYQQKSGKAPDLLIFAASSLQSGVPSRFSGSGSGTDFTLTISSLQPEDFATYYCQQANSFPYTFGQGTKLEIK
notes: Tested as non-clonal AlivaMab Mouse Kappa hybridoma supernatant: human variable domains and human kappa, mouse Fc
B2: 75110_01D24A (antibody, V domains shown)
VH: QVQLQQWGAGLLKPSETLSLTCAVYGGSFSGYYWSWIRQPPGKGLEWIGEINHSGSTNYNPSLKSRVTISVDTSENQFSLKLNSVTAADTAVYYCARLVNWFDPWGQGTLVTVSS
VL: B1 VL with D1E, G28D, D31N, S40P, D45N, S56T, E81D, T97S, K103N, E105G
notes: as for B1
B3: 75110_04F22A (antibody, V domains shown)
VH: EVQLVESGGGLVQPGGSLRLSCAASGFTFSSYDIHWVRQATGKGLEWVSTIGTAGDTYYPGSVKGRFTISRENAKNSLYLQMNSLRAGDTAVYYCARGGYYYYGMDVWGQGTTVTVSS
VL: EIVLTQSPGTLSLSPGERATLSCRASQSVYSSYLAWYQQKPGQAPRLLIYGASSRATGIPDRFSGSGSGTDFTLTISRLEPEDFAVYYCQQFGTSPFTFGPGTKVDIK
notes: as for B1
B4: 75110_04G16A (antibody, V domains shown)
VH: QVQLQESGPGLVKPSQTLSLTCTVSGDSISSGYYYWSWIRQHPGKGLEWIGYISYSGSTYYNPSLKSRLTISVNTSKNQFSLKLSSLTAADTAVYYCARDRPSNFDAFDIWGQGTMVTVSS
VL: B3 VL with Y30G, S32T, S53F, F92Y, T94S, F97L
notes: as for B1
B5: 75110_04P06A (antibody, IgG1, V domains shown)
VH: B3 VH with S31N, I34M, Y100D
VL: B3 VL with G9D, V29L, Y30S, S32V, S77N, A85V, F92Y, T94S
notes: as for B1
B6: 75110_05K11A (antibody, IgG1, V domains shown)
VH: B3 VH with I34M, A40P, G61A, Y100F
VL: B3 VL with A19V, Y30S, S31N, S32T, A85V, F92H, T94S
notes: as for B1
B7: 75110_01J17A (antibody, IgG1, V domains shown)
VH: B3 VH with I34M, A40G, G55D, K75E, Y100D
VL: B3 VL with T5A, S31I, S77T, T94S, I107F
notes: as for B1
B8: 75110_01N04A (antibody, IgG1, V domains shown)
VH: B3 VH with S31N, I34M, Y100D, Y101F, M105L
VL: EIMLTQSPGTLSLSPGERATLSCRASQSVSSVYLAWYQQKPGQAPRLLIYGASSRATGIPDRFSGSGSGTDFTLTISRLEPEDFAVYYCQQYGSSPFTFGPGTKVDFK
notes: as for B1
B9: 75110_01K10A (antibody, V domains shown)
VH: B3 VH with G10A, S30R, S31N, I34M, Y100D
VL: B3 VL with G9D, V29L, Y30S, S32V, S66T, F92Y, T94S
notes: as for B1
B10: 75110_07E04A (antibody, IgG1, V domains shown)
VH: B3 VH with A24V, I34M, N76K, S77F
VL: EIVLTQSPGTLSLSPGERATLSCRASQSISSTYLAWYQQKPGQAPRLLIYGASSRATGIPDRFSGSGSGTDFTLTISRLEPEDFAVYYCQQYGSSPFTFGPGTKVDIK
notes: as for B1
B11: 75110_01G11A (antibody, IgG1, V domains shown)
VH: B3 VH with I34M, K75R, Y79F, Y100D
VL: B3 VL with S14F, S28N, V29T, S54N, F92H
notes: as for B1
B12: 75110_14P05A (antibody, V domains shown)
VH: B3 VH with I34V, Y100F
VL: B3 VL with Y30S, A44T, Y87F, F92S, T94S, I107V
notes: as for B1

Legend:
[1] = target: T1, human CD4 on cells (SKW3 cells; human PBMCs) (human, UniProt P01730 26-458); experiment: FACS binning on SKW3 cells pre-incubated with supernatant; competitor OKT4a read with anti-human A647 secondary; background 5000, max binding 35000
T1 construct: whole, on cells; SKW3 CD4 knockout cells served as the negative cell line; also called hCD4

[2] = target: T1, human CD4 on cells (SKW3 cells; human …); experiment: FACS primary screen, non-clonal hybridoma supernatant, SKW3 vs SKW3 CD4 knockout cells, anti-human kappa FITC
[3] = target: T1, human CD4 on cells (SKW3 cells; human …); experiment: FACS confirmation, supernatant on human PBMCs, anti-mouse Fc 647, CD4+ gate
[4] = target: T1, human CD4 on cells (SKW3 cells; human …); experiment: FACS primary screen, non-clonal hybridoma supernatant, SKW3 vs SKW3 CD4 knockout cells, anti-mouse Fc A647
[5] = target: T1, human CD4 on cells (SKW3 cells; human …); experiment: FACS confirmation, supernatant on SKW3 WT cells, anti-human kappa FITC; background gMFI 2500
[6] = target: T2, huCD4-HIS (human, UniProt P01730 26-390, limits assumed); experiment: ELISA binning, competitor Ibalizumab; 100 ng/mL huCD4-HIS, anti-HIS HRP detection; background 45, max binding 3000000
T2 construct: the ELISA binning is not described in the text of this stretch

[7] = target: T1, human CD4 on cells (SKW3 cells; human …); experiment: FACS confirmation, supernatant on SKW3 WT cells, anti-mouse Fc 647; background gMFI 3300
[8] = target: T1, human CD4 on cells (SKW3 cells; human …); experiment: FACS confirmation, supernatant on human PBMCs, anti-mouse Fc 647, CD4+ percent of viable cells
[9] = target: T1, human CD4 on cells (SKW3 cells; human …); experiment: FACS binning on SKW3 cells pre-incubated with supernatant; competitor OKT4-A488, its signal read; background 2163, max binding 8200
[10] = target: T1, human CD4 on cells (SKW3 cells; human …); experiment: FACS binning on SKW3 cells pre-incubated with supernatant; competitor RPA-T4-PE-Dazzle 594, its signal read; background 783, max binding 15000

Binder | SKW3 FACS Binning OKT4a anti-hu A647 Secondary [1] | SKW3 WT vs KO anti-hKappa-FITC [2] [fold] | PBMCs, anti-mFc 647 CD4+ gate - RL1 Binding [3] | SKW3 WT vs KO anti-mFc-647 [4] [fold] | SKW3 WT anti-hu Kappa FITC, gMFI [5] [gMFI] | Ibalizumab ELISA binning signal [6] | SKW3 WT anti-mFc 647, gMFI [7] [gMFI] | PBMCs, anti-mFc 647 CD4+ Percent Bound of Viable [8] [%] | SKW3 FACS Binning OKT4 A488 [9] | SKW3 FACS Binning RPA-T4-PE-Dazzle 594 [10]
B1 | 6220 | 2.8 | 215000 | 6.4 | 5910 | 1.16e+06 | 18200 | 27 | 9370 | 19000
B2 | 5320 | 2.5 | 257000 | 6.8 | 5520 | 20300 | 25000 | 31 | 11100 | 15200
B3 | 40200 | 1.8 | 286000 | 3.6 | 5580 | 748000 | 26900 | 32 | 9940 | 2290
B4 | 6740 | 2.3 | 255000 | 6.3 | 6830 | 52600 | 32500 | 32 | 9640 | 13500
B5 | 37400 | 1.6 | 292000 | 3.9 | 5600 | 1.22e+06 | 24500 | 31 | 10100 | 2190
B6 | 37600 | 1.8 | 267000 | 4 | 6700 | 1.18e+06 | 35900 | 31 | 9730 | 2190
B7 | 37700 | 2.1 | 280000 | 4.3 | 5780 | 755000 | 31600 | 32 | 10000 | 1950
B8 | 38100 | 1.9 | 210000 | 3.7 | 5640 | 1.04e+06 | 28000 | 33 | 9720 | 2240
B9 | 30000 | 2.2 | 283000 | 4.6 | 5940 | 890000 | 24300 | 30 | 10800 | 1510
B10 | 31300 | 1.8 | 206000 | 2.9 | 6360 | 1.73e+06 | 22000 | 30 | 9940 | 2420
B11 | 30100 | 2 | 244000 | 3.4 | 5000 | 495000 | 19200 | 30 | 10100 | 2160
B12 | 6110 | 2.8 | 187000 | 4.6 | 7520 | 710000 | 24000 | 27 | 9340 | 20300
